This is an account of results in patent publication US20170131281A1.

Assay [1] deals with KG1 cells surface antigen (6B protein binding surface antigen, unidentified). The assay can be described thus: flow cytometry on KG1 cells, sandwich with anti-c-myc-FITC. Background: A flow cytometer gives signals particle by particle.
Assay [2] concerns the target HL60 cells surface antigens. The assay can be described thus: flow cytometry on HL60 cells, sandwich with anti-c-myc-FITC.

B1: 6B antibody in an scFv format (Clone 6B) (scFv, not shown: small tags and cut ends)
scFv: EVQLLESGGGLVQPGGSLRLSCAASGFTFSSYGMSWVRQAPGKGLEWVSTIRTAGRATEYADSVKGRFTISRDNSKNTLYLQMNSLRAEDTAVYYCAKSPQTFDYWGQGTLVTVSSGGGGSGGGGSGGGGSTDIQMTQSPSSLSASVGDRVTITCRASQSISSYLNWYQQKPGKAPKLLIYRASRLQSGVPSRFSGSGSGTDFTLTISSLQPEDFATYYCQQRLTIPITFGQGTKVEIKRAAA
With B1, in assay [1], the FITC+: % Vis came to 100%, the FITC+: GeoMean was found to be 28.1, the FITC+: mean came to 29.4 and the FITC+: median came to 28.4. Besides, in assay [2], the FITC+: % Vis came to 4.5%, the FITC+: GeoMean was 9.8, the FITC+: mean turned out to be 10.7 and the FITC+: median stood at 8.9.
